# From patent US20160228506A1, “Compositions and Formulations for Prevention and Reduction of Tumorigenesis, Cancer Cell Proliferation and Invasion, and Methods of Production and Use Thereof in Cancer Treatment” (PRONUTRIA, INC., priority 2013, published 2016)
# B1: SEQID-00495: protein of the 168 nutritive polypeptide library (protein, listed as Vitis vinifera)
# chain: MEKNVESDPNPPLASGPEFPPATTPADVKNDVALEKSVVPPPEVKADESKALAVVEKTPDSAAKKTSGGSFERDVALANLEKEKQLSFIRAWEESEKSKVDNKAQKKLSDVCAWENSKKAAVEANLKKIEEELEKKKAEYAEKMKNKVALIHKQAEEKKAMIEARRGEEFLKAEEMAAKFRATGQTPKKVLGCFGG
# B2: SEQID-00525: protein of the 168 nutritive polypeptide library (protein, listed as Saccharomyces cerevisiae)
# chain: MTKNFIVTLKKNTPDVEAKKFLDSVHHAGGSIVHEFDIIKGYTIKVPDVLHLNKLKEKHNDVIENVEEDKEVHT
# modifications: source: /note="strain ATCC 204508 / S288c"
# notes: protein of the 168 nutritive polypeptide library
# B3: SEQID-00520: protein of the 168 nutritive polypeptide library (protein, listed as Gallus gallus)
# chain: MSDEEKKRRAATARRQHLKSAMLQLAVTEIEKEAAAKEVEKQNYLAEHCPPLSLPGSMQELQELCKKLHAKIDSVDEERYDTEVKLQKTNKELEDLSQKLFDLRGKFKRPPLRRVRMSADAMLRALLGSKHKVNMDLRANLKQVKKEDTEKEKDLRDVGDWRKNIEEKSGMEGRKKMFEAGES
# B4: SEQID-00532: protein of the 168 nutritive polypeptide library (protein)
# chain: MSIAVGMIETIGFPAVVEAADSMVKAARVTLVGYEKIGSGRVTVIVRGDVSEVQASVSAGIESVKRVNGGEVSSTHIIARPHENLEYVLPIRYTDAVEQFRSY
# modifications: Arthrospira platensis NIES-39
# notes: as for B2
# B5: SEQID-00489: protein of the 168 nutritive polypeptide library (protein, listed as Saccharomyces cerevisiae)
# chain: MSVEEVSKKFEENVSVDDTTATPKTVLSDSAHFDVKHPLNTKWTLWYTKPAVDKSESWSDLLRPVTSFQTVEEFWAIIQNIPEPHELPLKSDYHVFRNDVRPEWEDEANAKGGKWSFQLRGKGADIDELWLRTLLAVIGETIDEDDSQINGVVLSIRKGGNKFALWTKSEDKEPLLRIGGKFKQVLKLTDDGHLEFFPHSSANGRHPQPSITL
# modifications: source: /note="strain ATCC 204508 / S288c"
# notes: as for B2
# B6: SEQID-00529: protein of the 168 nutritive polypeptide library (protein)
# chain: MLGYISAGKMGSSPSGARFFKYEVVGMRQNDETDKTEYQIRSSGSQFVIVPYNRMNQEMRRINRMGGKIVSIEPMTTDNTVSEAEGE
# modifications: Arthrospira platensis Sp-1
# notes: as for B2
# B7: SEQID-00521: protein of the 168 nutritive polypeptide library (protein, listed as Arthrospira platensis)
# chain: MQDAITSVINSSDVQGKYLDASAIQKLKAYFATGELRVRAATTISANAANIVKEAVAKSLLYSDITRPGGNMYTTRRYAACIRDLDYYLRYATYAMLAGDPSILDERVLNGLKETYNSLGVPIGATVQAIQAMKEVTAGLVGADAGKEMGIYFDYICSGLS
# B8: SEQID-00528: protein of the 168 nutritive polypeptide library (protein, listed as Saccharomyces cerevisiae)
# chain: MVLVQDLLHPTAASEARKHKLKTLVQGPRSYFLDVKCPGCLNITTVFSHAQTAVTCESCSTVLCTPTGGKAKLSEGTSFRRK
# modifications: source: /note="strain ATCC 204508 / S288c"
# notes: as for B2
# B9: SEQID-00484: protein of the 168 nutritive polypeptide library (protein, listed as Saccharomyces cerevisiae)
# chain: MSEKFPPLEDQNIDFTPNDKKDDDTDFLKREAEILGDEFKTEQDDILETEASPAKDDDEIRDFEEQFPDINSANGAVSSDQNGSATVSSGNDNGEADDDFSTFEGANQSTESVKEDRSEVVDQWKQRRAVEIHEKDLKDEELKKELQDEAIKHIDDFYDSYNKKKEQQLEDAAKEAEAFLKKRDEFFGQDNTTWDRALQLINQDDADIIGGRDRSKLKEILLRLKGNAKAPGA
# modifications: source: /note="strain ATCC 204508 / S288c"
# notes: as for B2
# B10: SEQID-00524: protein of the 168 nutritive polypeptide library (protein)
# chain: MPAWYSIDSRVRGTSLVVKGLKENVEYHFRVSAENQFGISKPMKSEEPVIPKTPLSKASSNHNTVNFLS
# modifications: Ovis aries
# notes: as for B2
# B11: SEQID-00533: protein of the 168 nutritive polypeptide library (protein)
# chain: MVTEFQTRDLADVIRRPIVTEKATIQMELNQFTFDVDPRADKPTIKAAVELLFPVKVLSVNTQNPPRRQRRVGRFVGYKPRYKRAIVTLEDGEALRKVLFPEV
# modifications: Arthrospira platensis NIES-39
# notes: as for B2
# B12: SEQID-00507: protein of the 168 nutritive polypeptide library (protein, listed as Agaricus bisporus)
# chain: MISFYDLTAKPPFKTVSVNSWKIRYALNFKNLPYKTLYFEFPDMAKEFSKVGIPPSSVSADGPSYTVPSLIDDSTNTRISESFTIALYLDKQYPDAPKLFPAGTEALQAAFHEEFYKVMSPTFPFFFPKAGNVLNKPSDDYFAVTRAKMFGMSMADFEPKGEARVEAWKKVKDAFDTLESWMSKTSGPFFMGETVSFADFVIGGLLNEFSMCMGENSPEWQDVLKWNNGRWATLKKKLEVYANTDQ
# modifications: source: /note="var. bisporus"; source: /note="strain H97 / ATCC MYA-4626 / FGSC 10389"
# notes: as for B2
# B13: SEQID-00515: protein of the 168 nutritive polypeptide library (protein, listed as Saccharomyces cerevisiae)
# chain: MSNLLNKFADKLHGNDHDERYEDDNDDQTRQQRHEKHQQREFRNQGSKADPYGEENQGNFPQRQQPQSNLGGNTQFGGNDFQQQTTDYTAGTGGGTYTQTYRETNTQGQLDDDEDDDFLTSGQQQKQGRTRGAQSNRYQSSNIGSGRRDLSGSGNDEYDDDSGNQGVW
# modifications: source: /note="strain ATCC 204508 / S288c"
# notes: as for B2
# B14: SEQID-00518: protein of the 168 nutritive polypeptide library (protein, listed as Lactobacillus acidophilus)
# chain: MTKGILGRKVGMTQIFTKDGVLVPVTVVEATPNVVMQVKTVESDGYEAVQLGYQDKREVLSNKPEKGHADKAKTSPKRFIREIRGVELKDYEVGSEVTVDTFKEGDVVNVTGTSRGHGYQGNIKRWGQSRGPETHGSRYHRIPGSMGSIINRVPKGKRLPGHMGVKKVTIENLVIEKVVADKNVLMIKGNVPGAKNSLIVVKTASKAVKADK
# modifications: source: /note="strain 30SC"
# notes: as for B2
# B15: SEQID-00534: protein of the 168 nutritive polypeptide library (protein)
# chain: MSIYVGNLSYEVTEDDLTAVFAEYGSVKRVKLPTDRETGRMRGFGFVEMDTEAEEQSAIDALDGAEWCGRDLRVNKAKPRENSGSFGGGGGGRRGGGGYSRRS
# modifications: Arthrospira platensis NIES-39
# notes: as for B2
# B16: SEQID-00497: protein of the 168 nutritive polypeptide library (protein, listed as Saccharomyces cerevisiae)
# chain: MSIASYAQELKLALHQYPNFPSEGILFEDFLPIFRNPGLFQKLIDAFKLHLEEAFPEVKIDYIVGLESRGFLFGPTLALALGVGFVPVRKAGKLPGECFKATYEKEYGSDLFEIQKNAIPAGSNVIIVDDIIATGGSAAAAGELVEQLEANLLEYNFVMELDFLKGRSKLNAPVFTLLNAQKEALKK
# modifications: source: /note="strain ATCC 204508 / S288c"
# notes: as for B2
# B17: SEQID-00509: protein of the 168 nutritive polypeptide library (protein, listed as Gadus morhua)
# chain: MSDTEDVDQVEDEKPKFKPSAPKIPDGEKVDFDDIQKKRQNKDLSELQGLIDAHFEGRKKEEEELIALKERIEKRRAERAEQQRIRSEKDKERQARREEERLKREEADAKKKMEEDAKKKSALSNMGSNYSSHLQKADQKRGGGKKETEREKKKKILAARRKGLNIDHLNEDKLKDKINELHEWMSTLESEKFDHMERLNRQKYEVTTLRKRVEELSKFSKKGKTVRRK
# Assay: SGF digest of 168 nutritive polypeptide library, intact protein by LC-MS/MS
# Type: in vitro ADME
# Conditions: 168 nutritive polypeptide library SGF digest, LC-MS/MS spectral counts
# Experimental: The in vitro intact half-life of multiple polypeptides in a complex mixture was determined using the simulated gastric in vitro digestion described above. Briefly, the 168 nutritive polypeptide library was generated as described herein by cloning, transforming, and expressing a gene library encoding 168 proteins as a single mixture. The recombinantly expressed proteins were purified from host cell proteins by IMAC purification as described herein.
# The 168 Protein Library was treated with SGF as described above and the t=0 and t=10 min samples were analyzed for intact protein by LC-MS/MS. To begin, 10 μg of sample was loaded onto a 10% SDS-PAGE gel (Invitrogen) and run approximately 5 cm into the gel. The gel was excised into ten fractions from 100 kD to the dye front and the gel slices were processed by washing with 25 mM ammonium bicarbonate, followed by acetonitrile. Gel fractions were then reduced with 10 mM dithiothreitol at 60° C., followed by alkylation with 50 mM iodoacetamide at room temperature. Finally, the samples were digested with trypsin (Promega) at 37° C. for 4 h and the digestions were quenched with the addition of formic acid. The samples were then analyzed by nano LC/MS/MS using an EasynLC 1000 HPLC system interfaced to a ThermoFisher Q Exactive. Peptides were loaded on a trapping column and eluted over a 75 μm analytical column at 350 nL/min; both columns were packed with PepMap C18 3 μm resin (ThemoFisher). A 1 hour gradient was employed. The mass spectrometer was operated in data-dependent mode, with MS and MS/MS performed in the Orbitrap at 70,000 FWHM resolution and 17,500 FWHM resolution, respectively. The fifteen most abundant ions were selected for MS/MS. Data were searched against an appropriate database using Mascot to identify peptides. Mascot DAT files were parsed into the Scaffold software for validation, filtering and to create a nonredundant list per sample. Data were filtered at 1% protein and peptide false discovery rate (FDR) and requiring at least two unique peptides per protein. A full list of detected proteins and their spectral counts (SpC) was generated and reported as a function of each collected gel fraction. SpC are a count of the number of spectra identified for a given protein and are used as a measure of relative protein abundance (Liu, H. et al., Analytical Chemistry 2004, 76: 4193-4201). To calculate the percentage of intact protein remaining at the 10 min time point of the SGF digest the number of SpC representative of intact peptide in the t=10 min sample were divided by the number of SpC representative of intact peptide in the t=0 min sample. The number of SpC representative of intact peptide was defined as the sum of the SpC in the fraction with the highest number of SpC assigned to that protein in the t=0 min sample and the two flanking fractions.
row,Molecule,% Intact Protein at 10 min
1,B1,0%
2,B2,13.7%
3,B3,0%
4,B4,0%
5,B5,0%
6,B6,0%
7,B7,11.5%
8,B8,11.8%
9,B9,0%
10,B10,0%
11,B11,19%
12,B12,0%
13,B13,17%
14,B14,0%
15,B15,0%
16,B16,20.3%
17,B17,36.4%
